Assay results: article PMC6771245, “CMKLR1-targeting peptide tracers for PET/MR imaging of breast cancer” (Theranostics, 2019)
*1 amine or outer side, *2 acyl side, *3 side chain or, on linkers, in order; H or OH if unused. Where a SMILES comes first, the peptide text is derived from it. [ ]: non-standard residue; d: D form. The star is where a group is joined. X1 = O=C(O)CN1CCN(CC(=O)O)CCN(CC(=O)NCCCOCCOCCOCCCN*)CCN(CC(=O)O)CC1; DOTA = O=C(O)CN1CCN(CC(=O)O)CCN(CC(=O)*)CCN(CC(=O)O)CC1; Hyp = O=C(O)[C@@H]1C[C@@H](O)CN1; Tic = O=C(O)[C@@H]1Cc2ccccc2CN1; Cha = N[C@@H](CC1CCCCC1)C(=O)O; Cit = NC(=O)NCCC[C@H](N)C(=O)O; Suc = O=C(CCC(=O)[*:2])[*:1]; Octanoyl = CCCCCCCC(=O)*; Ahx = NCCCCCC(=O)O

What was measured:
[1] = test system: DU4475/A549 xenograft model; assay: in vivo; conditions: mouse
Source text: (§1) For in vivo experiments, at least 8-week-old female athymic NMRI-Foxn1^nu /Foxn1^nu mice (Janvier Labs, Saint-Berthevin, France) were used. Animal care followed institutional guidelines and all experiments were approved by local animal research authorities. For the generation of tumor xenografts, 5 x 10^6 cells of both DU4475 and A549 cells were inoculated subcutaneously into the right and left shoulder, respectively (1:1 phosphate-buffered saline [PBS]/Matrigel Basement Membrane Matrix High Concentration, Corning, Corning, USA). Part of the animals received SW13 lung cancer cells as a CMKLR1-negative control tumor. For the analysis of biodistribution, only data of […] and A549 xenograft tumors are used. Tumors were allowed to grow for two to four weeks (tumor volume > 100 mm^3) after cell inoculation.
(§2) Radiolabeling experiments were performed on a Modular Lab PharmTracer synthesis module (Eckert & Ziegler, Berlin, Germany) which allows fully automated cassette-based labeling of gallium tracers utilizing a pharmaceutical grade ^68Ge/^68Ga generator (GalliaPharm, 1.85 GBq, good manufacturing practice [GMP]-certified; Eckert & Ziegler GmbH, Berlin, Germany). Cassettes were GMP-certified and sterile. They were used without pre-conditioning of the cartridges. The gallium generator was eluted with aqueous HCl (0.1 M, 7 mL) and the eluate was purified on an ion-exchange cartridge followed by elution using 1 mL of 0.1 M HCl in acetone. The peptide-DOTA conjugate (50 µg from a stock solution 1 mg/mL in 10% dimethyl sulfoxide [DMSO] in water) was mixed with 500 µL 0.1 M HEPES buffer (pH 7) and heated for 500 seconds at 95 °C. After the reaction, the mixture was passed through a C-18 cartridge for purification and the tracer was eluted from the cartridge with ethanol. In order to control the quality of radiolabeling, the radiochemical yield, purity, and specific activity for all five peptide-DOTA conjugates and each individual labeling experiment was determined. Overall, a radiochemical yield of 82.1% ± 6.7%, a radiochemical purity of 98.1 ± 4.6% and a molar activity of 8.6 GBq/µmol ± 2.7 GBq/µmol was achieved (Table S1). Before animal injection, the activity was equilibrated to neutral pH using 1 M sodium hydrogen carbonate. It was further diluted with saline to ≤ 10% ethanol.
(§3) Tumor-bearing mice were injected with approximately 10 MBq of ^68Ga-labeled DOTA-peptide or 1 MBq of ^177Lu-labeled DOTA-peptide to the tail vein via a catheter. Mice were sacrificed and dissected one or two hours after injection. Tumor, blood, stomach, pancreas, small intestine, colon, liver, spleen, kidney, heart, lung, muscle and femur samples were weighed and uptake of radioactivity was measured by a gamma counter. To determine the effect of unlabeled ligand on the tumor uptake, 200 nmol CG34 peptide (100-fold excess) was co-injected.

in vivo = conditions: female, mouse, iv, 10 MBq, total radioactivity
Source text: as §1, §2, §3

[2] = athymic NMRI-Foxn1^nu/Foxn1^nu, A549 tumor uptake
[3] = athymic NMRI-Foxn1^nu/Foxn1^nu, DU4475 tumor uptake
[4] = athymic NMRI-Foxn1^nu/Foxn1^nu, blood uptake
[5] = athymic NMRI-Foxn1^nu/Foxn1^nu, heart uptake
[6] = athymic NMRI-Foxn1^nu/Foxn1^nu, kidney uptake
[7] = athymic NMRI-Foxn1^nu/Foxn1^nu, liver uptake
[8] = athymic NMRI-Foxn1^nu/Foxn1^nu, lung uptake
[9] = athymic NMRI-Foxn1^nu/Foxn1^nu, muscle uptake
[10] = athymic NMRI-Foxn1^nu/Foxn1^nu, spleen uptake
[11] = athymic NMRI-Foxn1nu/Foxn1nu, colon uptake
[12] = athymic NMRI-Foxn1nu/Foxn1nu, femur uptake
[13] = athymic NMRI-Foxn1nu/Foxn1nu, muscle uptake
[14] = athymic NMRI-Foxn1nu/Foxn1nu, pancreas uptake
[15] = athymic NMRI-Foxn1nu/Foxn1nu, small intestine uptake
[16] = athymic NMRI-Foxn1nu/Foxn1nu, spleen uptake
[17] = athymic NMRI-Foxn1nu/Foxn1nu, stomach uptake
[18] = athymic NMRI-Foxn1nu/Foxn1nu, tumor-to-blood ratio
[19] = athymic NMRI-Foxn1nu/Foxn1nu, tumor-to-kidney ratio
[20] = athymic NMRI-Foxn1nu/Foxn1nu, tumor-to-liver ratio
[21] = athymic NMRI-Foxn1nu/Foxn1nu, tumor-to-muscle ratio
[22] = athymic NMRI-Foxn1nu/Foxn1nu, tumor-to-pancreas ratio

Row | Compound | tissue uptake at 1 h (in vivo; [2]) [%ID/g] | tissue uptake at 1 h (in vivo; [3]) [%ID/g] | tissue uptake at 2 h (in vivo; [3]) [%ID/g] | tissue uptake at 1 h (in vivo; [4]) [%ID/g] | tissue uptake at 2 h (in vivo; [4]) [%ID/g] | tissue uptake at 1 h (in vivo; [5]) [%ID/g] | tissue uptake at 2 h (in vivo; [5]) [%ID/g] | tissue uptake at 1 h (in vivo; [6]) [%ID/g] | tissue uptake at 2 h (in vivo; [6]) [%ID/g] | tissue uptake at 1 h (in vivo; [7]) [%ID/g] | tissue uptake at 2 h (in vivo; [7]) [%ID/g] | tissue uptake at 1 h (in vivo; [8]) [%ID/g] | tissue uptake at 2 h (in vivo; [8]) [%ID/g] | tissue uptake at 1 h (in vivo; [9]) [%ID/g] | tissue uptake at 1 h (in vivo; [10]) [%ID/g] | tissue uptake at 1 h (in vivo; [11]) [%ID/g] | tissue uptake at 2 h (in vivo; [11]) [%ID/g] | tissue uptake at 1 h (in vivo; [12]) [%ID/g] | tissue uptake at 2 h (in vivo; [12]) [%ID/g] | tissue uptake at 2 h (in vivo; [13]) [%ID/g] | other results
1 | C[C@@H](NC(=O)[C@H](Cc1ccccc1)NC(=O)[C@H](CCCNC(N)=O)NC(=O)CNC(=O)[C@@H]1C[C@@H](O)CN1C(=O)[C@H](CC1CCCCC1)NC(=O)[C@H](Cc1ccc(O)cc1)NC(=O)CCC(=O)NCCCOCCOCCOCCCNC(=O)CN1CCN(CC(=O)O)CCN(CC(=O)O)CCN(CC(=O)O)CC1)C(=O)N1Cc2ccccc2C[C@H]1C(=O)N[C@@H](CO)C(=O)O [[^68Ga]Ga-DOTA-TTDS-CG34, metal not drawn] ({X1-Suc}-Y[Cha][Hyp]G[Cit]F[dA][Tic]S-OH) | – | – | – | – | – | – | – | – | – | – | – | – | – | – | – | – | – | – | – | – | difference in uptake between target-positive and target-negative tumor [1]: no clear difference in uptake between target-positive and target-negative tumor
2 | C[C@@H](NC(=O)[C@H](Cc1ccccc1)NC(=O)[C@H](CCCNC(N)=O)NC(=O)CNC(=O)[C@@H]1C[C@@H](O)CN1C(=O)[C@H](CC1CCCCC1)NC(=O)[C@H](Cc1ccc(O)cc1)NC(=O)CCCCCNC(=O)CN1CCN(CC(=O)O)CCN(CC(=O)O)CCN(CC(=O)O)CC1)C(=O)N1Cc2ccccc2C[C@H]1C(=O)N[C@@H](CO)C(=O)O [[^68Ga]Ga-DOTA-AHX-CG34, metal not drawn] ({DOTA-Ahx}-Y[Cha][Hyp]G[Cit]F[dA][Tic]S-OH) | 3 | 5.1 | 4.9 | 1.2 | 0.4 | 1.2 | 1.1 | 6.5 | 6.6 | 2.4 | 2.4 | 4.2 | 2.8 | 0.7 | 6.3 | 2.7 | 2.6 | 0.8 | 0.7 | 0.5 | tissue uptake at 2 h (in vivo; athymic NMRI-Foxn1nu/Foxn1nu, A549 tumor uptake): 1.4 %ID/g; tissue uptake at 1 h (in vivo; [14]): 1 %ID/g; tissue uptake at 2 h (in vivo; [14]): 0.8 %ID/g; tissue uptake at 1 h (in vivo; [15]): 2.1 %ID/g; tissue uptake at 2 h (in vivo; [15]): 2 %ID/g; tissue uptake at 2 h (in vivo; [16]): 5 %ID/g; tissue uptake at 1 h (in vivo; [17]): 1.7 %ID/g; tissue uptake at 2 h (in vivo; [17]): 1.3 %ID/g; tissue to tissue ratio at 1 h (in vivo; [18]): 5.9; tissue to tissue ratio at 2 h (in vivo; [18]): 13.3; tissue to tissue ratio at 1 h (in vivo; [19]): 0.9; tissue to tissue ratio at 2 h (in vivo; [19]): 0.7; tissue to tissue ratio at 1 h (in vivo; [20]): 2.3; tissue to tissue ratio at 2 h (in vivo; [20]): 2.2; tissue to tissue ratio at 1 h (in vivo; [21]): 8.5; tissue to tissue ratio at 2 h (in vivo; [21]): 11.4; tissue to tissue ratio at 1 h (in vivo; [22]): 5.6; tissue to tissue ratio at 2 h (in vivo; [22]): 6.2; DU4475 tumor uptake after two hours as % of the 1 h-value [1]: approx. 96%; higher uptake in CMKLR1-positive DU4475 tumors than in target-negative A549 tumors [1]: 1.7 fold
3 | CCCCCCCC(=O)NCCCC[C@H](NC(=O)CN1CCN(CC(=O)O)CCN(CC(=O)O)CCN(CC(=O)O)CC1)C(=O)N[C@@H](Cc1ccc(O)cc1)C(=O)N[C@@H](CC1CCCCC1)C(=O)N1C[C@H](O)C[C@H]1C(=O)NCC(=O)N[C@@H](CCCNC(N)=O)C(=O)N[C@@H](Cc1ccccc1)C(=O)N[C@H](C)C(=O)N1Cc2ccccc2C[C@H]1C(=O)N[C@@H](CO)C(=O)O [[^68Ga]Ga-DOTA-KCap-CG34, metal not drawn] ({DOTA}-K(Octanoyl)Y[Cha][Hyp]G[Cit]F[dA][Tic]S-OH) | 2.3 | 3.3 | 2.9 | 0.6 | 0.2 | 1.1 | 0.8 | 5.8 | 6.5 | 2.2 | 1.8 | 1.7 | 1.2 | 0.6 | 4.9 | 2.4 | 1.7 | 0.6 | 0.5 | 0.4 | tissue uptake at 1 h (in vivo; [14]): 0.9 %ID/g; tissue uptake at 2 h (in vivo; [14]): 0.7 %ID/g; tissue uptake at 1 h (in vivo; [15]): 2.3 %ID/g; tissue uptake at 2 h (in vivo; [15]): 1.9 %ID/g; tissue uptake at 2 h (in vivo; [16]): 4 %ID/g; tissue uptake at 1 h (in vivo; [17]): 1.4 %ID/g; tissue uptake at 2 h (in vivo; [17]): 1.1 %ID/g; tissue to tissue ratio at 1 h (in vivo; [18]): 5.6; tissue to tissue ratio at 2 h (in vivo; [18]): 18.2; tissue to tissue ratio at 1 h (in vivo; [19]): 0.7; tissue to tissue ratio at 2 h (in vivo; [19]): 0.6; tissue to tissue ratio at 1 h (in vivo; [20]): 1.6; tissue to tissue ratio at 2 h (in vivo; [20]): 1.8; tissue to tissue ratio at 1 h (in vivo; [21]): 6.6; tissue to tissue ratio at 2 h (in vivo; [21]): 7.2; tissue to tissue ratio at 1 h (in vivo; [22]): 3.7; tissue to tissue ratio at 2 h (in vivo; [22]): 4.3; DU4475 tumor uptake after two hours as % of the 1 h-value [1]: approx. 88%; higher uptake in CMKLR1-positive DU4475 tumors than in target-negative A549 tumors [1]: 1.4 fold
